Read-outs that look alike come from different tables or passages of the source.
How the values were obtained:
[1] = molecular target: MtbFabD3KR-Strep (malonyl CoA-acyl carrier protein transacylase variant that lacks secondary pupylation sites) (Mycobacterium tuberculosis) (UniProt P9WNG5)
[2] = molecular target: MtbPanB-Strep (ketopantoate hydroxymethyltransferase) (Mycobacterium tuberculosis) (UniProt P9WIL7)
[3] = molecular target: MtbPanB-Strep (ketopantoate hydroxymethyltransferase) (Mycobacterium tuberculosis) (UniProt P9WIL7); remark: listed apart in the source

B1: CglPafA K106R, K172R, K302R (proteasome accessory factor A from Corynebacterium glutamicum) (enzyme)
chain: STVESALTRRIMGIETEYGLTFVDGDSKKLRPDEIARRMFRPIVEKYSSSNIFIPNGSRLYLDVGSHPEYATAECDNLTQLINFEKAGDVIADRMAVDAEESLAREDIAGQVYLFKNNVDSVGNSYGCHENYLVGRSMPLKALGKRLMPFLITRQLICGAGRIHHPNPLDRGESFPLGYCISQRSDHVWEGVSSATTRSRPIINTRDEPHADSHSYRRLHVIVGDANMAEPSIALKVGSTLLVLEMIEADFGLPSLELANDIASIREISRDATGSTLLSLKDGTTMTALQIQQVVFEHASRWLEQRPEPEFSGTSNTEMARVLDLWGRMLKAIESGDFSEVDTEIDWVIKKKLIDRFIQRGNLGLDDPKLAQVDLTYHDIRPGRGLFSVLQSRGMIKRWTTDEAILAAVDTAPDTTRAHLRGRILKAADTLGVPVTVDWMRHKVNRPEPQSVELGDPFSAVNSEVDQLIEYMTVHAESYRS
B1 showed an App. initial pupylation rate (in vitro pupylation of FabD, SDS-PAGE densitometry) [1] of 10.4 h⁻¹.

B2: PafA R442A (enzyme)
chain: STVESALTRRIMGIETEYGLTFVDGDSKKLRPDEIARRMFRPIVEKYSSSNIFIPNGSRLYLDVGSHPEYATAECDNLTQLINFEKAGDVIADRMAVDAEESLAREDIAGQVYLFKNNVDSVGNSYGCHENYLVGRSMPLKALGKRLMPFLITRQLICGAGRIHHPNPLDRGESFPLGYCISQRSDHVWEGVSSATTRSRPIINTRDEPHADSHSYRRLHVIVGDANMAEPSIALKVGSTLLVLEMIEADFGLPSLELANDIASIREISRDATGSTLLSLKDGTTMTALQIQQVVFEHASRWLEQRPEPEFSGTSNTEMARVLDLWGRMLKAIESGDFSEVDTEIDWVIKKKLIDRFIQRGNLGLDDPKLAQVDLTYHDIRPGRGLFSVLQSRGMIKRWTTDEAILAAVDTAPDTTRAHLRGRILKAADTLGVPVTVDWMAHKVNRPEPQSVELGDPFSAVNSEVDQLIEYMTVHAESYRS
Work on B2 yielded an App. initial pupylation rate (in vitro pupylation of FabD, SDS-PAGE densitometry) [1] of 2.87 h⁻¹.

B3: PafA R137A (enzyme)
chain: STVESALTRRIMGIETEYGLTFVDGDSKKLRPDEIARRMFRPIVEKYSSSNIFIPNGSRLYLDVGSHPEYATAECDNLTQLINFEKAGDVIADRMAVDAEESLAREDIAGQVYLFKNNVDSVGNSYGCHENYLVGASMPLKALGKRLMPFLITRQLICGAGRIHHPNPLDRGESFPLGYCISQRSDHVWEGVSSATTRSRPIINTRDEPHADSHSYRRLHVIVGDANMAEPSIALKVGSTLLVLEMIEADFGLPSLELANDIASIREISRDATGSTLLSLKDGTTMTALQIQQVVFEHASRWLEQRPEPEFSGTSNTEMARVLDLWGRMLKAIESGDFSEVDTEIDWVIKKKLIDRFIQRGNLGLDDPKLAQVDLTYHDIRPGRGLFSVLQSRGMIKRWTTDEAILAAVDTAPDTTRAHLRGRILKAADTLGVPVTVDWMRHKVNRPEPQSVELGDPFSAVNSEVDQLIEYMTVHAESYRS
For B3, the App. initial pupylation rate (in vitro pupylation of FabD, SDS-PAGE densitometry) [1] was 3.1 h⁻¹.

B4: PafA R137A, R218A (enzyme)
chain: STVESALTRRIMGIETEYGLTFVDGDSKKLRPDEIARRMFRPIVEKYSSSNIFIPNGSRLYLDVGSHPEYATAECDNLTQLINFEKAGDVIADRMAVDAEESLAREDIAGQVYLFKNNVDSVGNSYGCHENYLVGASMPLKALGKRLMPFLITRQLICGAGRIHHPNPLDRGESFPLGYCISQRSDHVWEGVSSATTRSRPIINTRDEPHADSHSYARLHVIVGDANMAEPSIALKVGSTLLVLEMIEADFGLPSLELANDIASIREISRDATGSTLLSLKDGTTMTALQIQQVVFEHASRWLEQRPEPEFSGTSNTEMARVLDLWGRMLKAIESGDFSEVDTEIDWVIKKKLIDRFIQRGNLGLDDPKLAQVDLTYHDIRPGRGLFSVLQSRGMIKRWTTDEAILAAVDTAPDTTRAHLRGRILKAADTLGVPVTVDWMRHKVNRPEPQSVELGDPFSAVNSEVDQLIEYMTVHAESYRS
With B4 the App. initial pupylation rate (in vitro pupylation of FabD, SDS-PAGE densitometry) [1] was 0.17 h⁻¹.

B5: PafA K444A (enzyme)
chain: STVESALTRRIMGIETEYGLTFVDGDSKKLRPDEIARRMFRPIVEKYSSSNIFIPNGSRLYLDVGSHPEYATAECDNLTQLINFEKAGDVIADRMAVDAEESLAREDIAGQVYLFKNNVDSVGNSYGCHENYLVGRSMPLKALGKRLMPFLITRQLICGAGRIHHPNPLDRGESFPLGYCISQRSDHVWEGVSSATTRSRPIINTRDEPHADSHSYRRLHVIVGDANMAEPSIALKVGSTLLVLEMIEADFGLPSLELANDIASIREISRDATGSTLLSLKDGTTMTALQIQQVVFEHASRWLEQRPEPEFSGTSNTEMARVLDLWGRMLKAIESGDFSEVDTEIDWVIKKKLIDRFIQRGNLGLDDPKLAQVDLTYHDIRPGRGLFSVLQSRGMIKRWTTDEAILAAVDTAPDTTRAHLRGRILKAADTLGVPVTVDWMRHAVNRPEPQSVELGDPFSAVNSEVDQLIEYMTVHAESYRS
B5 gave an App. initial pupylation rate (in vitro pupylation of FabD, SDS-PAGE densitometry) [1] of 2.65 h⁻¹.

B6: PafA R207A (enzyme)
chain: STVESALTRRIMGIETEYGLTFVDGDSKKLRPDEIARRMFRPIVEKYSSSNIFIPNGSRLYLDVGSHPEYATAECDNLTQLINFEKAGDVIADRMAVDAEESLAREDIAGQVYLFKNNVDSVGNSYGCHENYLVGRSMPLKALGKRLMPFLITRQLICGAGRIHHPNPLDRGESFPLGYCISQRSDHVWEGVSSATTRSRPIINTADEPHADSHSYRRLHVIVGDANMAEPSIALKVGSTLLVLEMIEADFGLPSLELANDIASIREISRDATGSTLLSLKDGTTMTALQIQQVVFEHASRWLEQRPEPEFSGTSNTEMARVLDLWGRMLKAIESGDFSEVDTEIDWVIKKKLIDRFIQRGNLGLDDPKLAQVDLTYHDIRPGRGLFSVLQSRGMIKRWTTDEAILAAVDTAPDTTRAHLRGRILKAADTLGVPVTVDWMRHKVNRPEPQSVELGDPFSAVNSEVDQLIEYMTVHAESYRS
Work on B6 yielded an in vitro pupylation of PanB, reduction against PafA (gel densitometry) [2] of 50 % reduction.

B7: PafA site 2 triple alanine variant (R137A/R207A/R218A) (enzyme)
chain: STVESALTRRIMGIETEYGLTFVDGDSKKLRPDEIARRMFRPIVEKYSSSNIFIPNGSRLYLDVGSHPEYATAECDNLTQLINFEKAGDVIADRMAVDAEESLAREDIAGQVYLFKNNVDSVGNSYGCHENYLVGASMPLKALGKRLMPFLITRQLICGAGRIHHPNPLDRGESFPLGYCISQRSDHVWEGVSSATTRSRPIINTADEPHADSHSYARLHVIVGDANMAEPSIALKVGSTLLVLEMIEADFGLPSLELANDIASIREISRDATGSTLLSLKDGTTMTALQIQQVVFEHASRWLEQRPEPEFSGTSNTEMARVLDLWGRMLKAIESGDFSEVDTEIDWVIKKKLIDRFIQRGNLGLDDPKLAQVDLTYHDIRPGRGLFSVLQSRGMIKRWTTDEAILAAVDTAPDTTRAHLRGRILKAADTLGVPVTVDWMRHKVNRPEPQSVELGDPFSAVNSEVDQLIEYMTVHAESYRS
For B7, the in vitro pupylation of PanB, reduction against PafA (gel densitometry) [3] was 70 % reduction.

B8: PafA R218A (enzyme)
chain: STVESALTRRIMGIETEYGLTFVDGDSKKLRPDEIARRMFRPIVEKYSSSNIFIPNGSRLYLDVGSHPEYATAECDNLTQLINFEKAGDVIADRMAVDAEESLAREDIAGQVYLFKNNVDSVGNSYGCHENYLVGRSMPLKALGKRLMPFLITRQLICGAGRIHHPNPLDRGESFPLGYCISQRSDHVWEGVSSATTRSRPIINTRDEPHADSHSYARLHVIVGDANMAEPSIALKVGSTLLVLEMIEADFGLPSLELANDIASIREISRDATGSTLLSLKDGTTMTALQIQQVVFEHASRWLEQRPEPEFSGTSNTEMARVLDLWGRMLKAIESGDFSEVDTEIDWVIKKKLIDRFIQRGNLGLDDPKLAQVDLTYHDIRPGRGLFSVLQSRGMIKRWTTDEAILAAVDTAPDTTRAHLRGRILKAADTLGVPVTVDWMRHKVNRPEPQSVELGDPFSAVNSEVDQLIEYMTVHAESYRS
B8 showed an App. initial pupylation rate (in vitro pupylation of FabD, SDS-PAGE densitometry) [1] of 5.05 h⁻¹.

B9: PafA site 3 alanine double mutant (R442A, K444A) (enzyme)
chain: STVESALTRRIMGIETEYGLTFVDGDSKKLRPDEIARRMFRPIVEKYSSSNIFIPNGSRLYLDVGSHPEYATAECDNLTQLINFEKAGDVIADRMAVDAEESLAREDIAGQVYLFKNNVDSVGNSYGCHENYLVGRSMPLKALGKRLMPFLITRQLICGAGRIHHPNPLDRGESFPLGYCISQRSDHVWEGVSSATTRSRPIINTRDEPHADSHSYRRLHVIVGDANMAEPSIALKVGSTLLVLEMIEADFGLPSLELANDIASIREISRDATGSTLLSLKDGTTMTALQIQQVVFEHASRWLEQRPEPEFSGTSNTEMARVLDLWGRMLKAIESGDFSEVDTEIDWVIKKKLIDRFIQRGNLGLDDPKLAQVDLTYHDIRPGRGLFSVLQSRGMIKRWTTDEAILAAVDTAPDTTRAHLRGRILKAADTLGVPVTVDWMAHAVNRPEPQSVELGDPFSAVNSEVDQLIEYMTVHAESYRS
B9 gave an App. initial pupylation rate (in vitro pupylation of FabD, SDS-PAGE densitometry) [1] of 2.64 h⁻¹.

From publication PMC10465538
